Target: T1, recombinant human cANGPTL4 (C terminal region of angiopoietin-like 4) (human, UniProt Q9BY76 186-406, limits assumed)
T1 construct: domain: c terminal region; Immobilized on the chip in SPR; added at 6 µg/ml to HMVECs in cell assays; also called rh-cANGPTL4; rhcANGPTL4
T1 sequence (looked up): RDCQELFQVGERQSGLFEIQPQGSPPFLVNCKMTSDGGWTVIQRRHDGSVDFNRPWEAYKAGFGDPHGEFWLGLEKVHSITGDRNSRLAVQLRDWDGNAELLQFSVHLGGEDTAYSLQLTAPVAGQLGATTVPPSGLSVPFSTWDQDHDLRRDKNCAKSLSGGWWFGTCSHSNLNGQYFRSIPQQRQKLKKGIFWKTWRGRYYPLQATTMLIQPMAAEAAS
Assay: SPR (BIAcore 2000), immobilized cANGPTL4, global fitting
Procedure: Six concentrations (0.16, 0.32, 0.63, 1.25, 2.50 and 5.0 μM) of recombinant integrin β1, first extracellular domain of VE-cadherin (ECD1), extracellular repeat 1 domain of VE-cadherin (EC1), occludin or JAM-A were used.
Global fitting of the SPR data was performed as previously described to determine the KD. Preinjection or preincubation with the indicated antibodies or preimmune IgG was performed to determine specific interactions. Each sensorgram was corrected by subtracting a sensorgram obtained from a reference flow cell with no immobilized protein. […] Values are mean±S.D. (n=3)

- Kd: 58.7 nM
B1: claudin-5 (SPR analyte) (other, UniProt O00501 1-218, looked up)
chain: MGSAALEILGLVLCLVGWGGLILACGLPMWQVTAFLDHNIVTAQTTWKGLWMSCVVQSTGHMQCKVYDSVLALSTEVQAARALTVSAVLLAFVALFVTLAGAQCTTCVAPGPAKARVALTGGVLYLFCGLLALVPLCWFANIVVREFYDPSVPVSQKYELGAALYIGWAATALLMVGGCLLCCGAWVCTGRPDLSFPVKYSAPRRPTATGDYDKKNYV

From patent US20180319878A1 (NANYANG TECHNOLOGICAL UNIVERSITY, published 2018)
